The record followed here is the NTF2 design screens of Basanta et al. (2020).

The data set is described as follows: protease stability score; higher = more stable; yeast display proteolysis, trypsin and chymotrypsin.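 Also: log10 excess protease needed over predicted unfolded state with 0 meaning unfolded.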
“DRDLNRHVKRFMDIIQNGDPDKAMEMVDPNVEFHVGDKRVHGQEELRELIKKEHDEQRKEIDDMRYDDRGSKAKINIEVRVEHNGRPNTVREDWNVEAKNGKIKRMNAKVDQ” gave a protease stability score of -0.495. In the case of “DRDQEDSFAKKVADVIQTGNPDDMRKLADEDARVDVGDKQYTGREHVDEAVENERKRIDHQQINSFSVNNGQIHATVSYVHNGQTHRFVVNVEIHNGHIKRARWQSK”, the protease stability score was determined as 0.273. In turn, “DREAKKRADQYMEVIQNGDPEKFKHQADENVRVEVGNHEYHGRESMAKELKKRRDEIRIDIRRYSIDNQGEKVRIEVDAVAQINGRPRTYSYVFEMTFQNGRIKKFTLQISEDDEQNLKS” displayed a protease stability score of 0.014. Take “DREAKNVFEKLTKAFETGNEDDMRKLLDEDVRFNIGDREVHGREQAVEDLKRKRTQMRVDIHHVDQQNEPNRLSVNVRMVVEHNGRPRDVQRHAVFDVHNGRIKSVKEKDRQ”: the protease stability score is -0.238. “DREDESELAMRAAVNAATGNEDEVSKNADPNVRAIYGDKNYDGTENMKDVIRQVRERIDHIELKSFEQHGDHAVARAEAKHNGDESTLVVTARAENGRVKSMRFEIR” showed a protease stability score of -0.275. “DREDHEHARTVFHNLQTGDFEEVKSLLDKNAKLTVGDRVLEGRDEIARQIRNELEEIRVEYVSVTFTVEGDKAQVHMVFKAEWNGNPADVRNVLRISQHNGRIKTMFIQISESQLEEYNR” displayed a protease stability score of 0.287. “DREDLAREMVERLEDIMKHNNEKELVNQMDENVRMTIGDKEYEGREAATKEAHDLFRRADHLRLSVETFNVQGDKAVITFQVVFNHNGRKSHDRVILDFRISGDKVKLVSQTKG” displayed a protease stability score of 0.509. The result for “DREDNEQVKKILETNDFHRLAEQADKDAKAVVGEKRYHGREHVREALLRLQKQADHLEIDSMDTSGDKVVMRAKLKINGKTMDVTFDVVVHNGRLQHFEMSATTEDDERIQRTANS” reads 0.743; that for “DREDQEEVARHLVEVLERGDPQKMLELADPNVRAEVGDKRYHGREDLKSIMDELSRQVDRIQVVHLDVKGNTVRVTVKNRVNGVVVDLVIIFHFRNGKLRDVTIDARNEEQLKKREG”, 0.754; that for “DREDTAREAAHEAIKIWKTGDPEKLKELFDPNVKVKIGDRTVHGREELVRQIRHEREQVDHLSFDLEDYKMDGDQMHVVVRFTANRNGRRTEDKQVYNASFHNGQFRIHEMNKK”, -0.356.

Sequence “DREEAKKIRKNWETNNWDHFAHQADENVRVRVGDKKYHGHHKLLEIMHQIEKRIDHARFDHIDLDGEKLTVDFQMVVNGKKVRYVMFIKVSNGRIKEVNIQFTSEEEERRAQEALR” had a protease stability score of 0.732. Regarding “DREEAKKVAEKAAKYFQNWNVEQLLKLIPDGGKYRIADEERHGPDVIKEVVEKQQRMGLEVEVKEVHAEGDTVHTVLDYRLGDTTATVHIQAKVQGGRIDEVQVDIPEEAQKMLKQG”, the protease stability score was found to be 0.401. Turning to “DREEHASQLFRDMQEVYHNNDPSKFKHLVDENVTRDVGDKTVHGQDEMAREMEKEARRVDKVRFDVRDVKSNNGRIKVRFVVTHNENGRERSSDVTVRFQVSNGRLVIESQTET”, the protease stability score is -0.206. In turn, “DREEKVREALETLQKAFRTGDPRLFVEQLDPNVRIEVGDKTVHGREQASEWAKRMRDKFDHFEVKIHDMSVQGDKFSVKVSLRQDVNGTDVQRDNHYTIVFHNGRVHVQNINNK” returned a protease stability score of 0.644. Take “DREEQKKVAKHMDDLVRTGDPREATDLIDPNAKADVGDKQYHGREQLHKLFKEQHERADHADLKSFDAHNGKVEVNVIIQVNGRRHRVIYHADADNGRVKFVSVRSS”: the protease stability score is -0.164. As to “DREEQSEFAKKFLEVVMHGDPKKIRKLADPNAKADVGDKKYHGRESMAKWAHDFRKEVDHIEFKDLKVDGETARLDVVYDVNGHKERQVVVVTAHNGRVKHMQVEEG”, the protease stability score is -0.18. For “DREERARQLLRELLKALETGDEDTAANQADPNVRVSVGDRTYHGREQYRTFLRKVAERVDHLEVRVDRVTQDNGQIHMDMTVRHEKNGRTHRKEFVIQIDVQGDKNRFVQMRHK”, the protease stability score was -0.163. Turning to “DREERHRAEQWLNAIKTNNPDDVVEQADKDVRLEVGEERVSGRSELRKEVDKDRKRWDFEIDHVDIKVHNGRIHMTVDVVVRHNGKPDKQEQEYTIEFSNGRARTIVARQNK”, the protease stability score was -0.229. “DREERKKIAQTILKIFETGDHKKFKRQIDPNVEVVVGDRTYKGRTQATKAFNEIQEKVDEVDVKTVHYKGDHAIVDAVLVINGRRVTVYFHLTIHNGRVKSISMQFRDEEDERKFRG” yielded a protease stability score of 0.367. The sequence “DREEVKKIKRLIETNDWRTLAQQADENVEIVYGNKTIHGREQALKFWDILRKHADHIEIKRFDNQGDKVRVNMTVEVNGRHITMNMNIVFHNGRLKEVEIRVTDEKQLKEIEDLVQ” returned a protease stability score of 1.59. The result for “DREEVRQVDQWMKNQQRNNPDELVKLADPNVEFRIGDKTVHGMRRYADDVRRKREHIRLEFKHMKIEDQNGRVILRAKAQREHNGKPETFTMQITFEAHNGRIKKAVITTQK” reads 0.044. For “DREIQHQVTELLEARRRGDEKRLQQNFDPNARMRIGDKEWHGMDTAAEEIAHEQREMRFDVKSIEVRVSGNKVSVDNRYVLEHDGRPHEFVQHDDVEMSNGKFKTAEVKHDG”, the protease stability score was -0.408. Under “DREKEAHELIEHFVRMLETGDEEKFKEMMDKDAKLHVGDKDVHGRDDVDRHLAQEYKQYDHVHFRVKDVKVRGDTIEAQVEVQFDHNGKTDTRTYRFVMRVDNGDVKFQSVSNS” stands 1.45; under “DREKQSEISTMMQKGDPQHLVDLADENAHVEIGNKRVHGRNQIKEYADRFHERVDHYSVRSIEIEGDTVTVTAYFVVNGQNIEWTMQMQNHNGKVKRIRVRFTNEELEKQLDKALS”, 0.846. Take “DRELNQLFRDYVHALKTGDEDELRKQADPNVRIEIGDKEWHGMEKIATEQKKRHDEIRVQIDVKEVSVHNGRVEAELEVVDQQNGRPEKRKVTVTAEYENGKLQHQRYQSDG”: the protease stability score was -0.442. Sequence “DRELRQNLHEFWKQQETGNPDELRKMVDPNARIVIGDKTYSGMDNAAQRMAESNQELSVDIKRLDLQASNGRVTIKLDAVKNHNGQPSRKTVTQTIRIHNGRIKHISMREDG” had a protease stability score of -0.448. As for “DREMLKDVKRLLEVINKGNEDEMRKMVDPNAKFVIGDKEITGREEFAKQMKRHKDEIRIDIKVKHLTAKGNRATVRATATRDHNGQPQSFKVTMRVTFSNGKVKKVHYDYTK”, the protease stability score was 0.065. “DREQAERLIRIMENERTGDPDKVVEMVDPNAKFKVGNTTYKGREELRKEVETRQKKARFEMSIQDYSVHGDTASIRYTLVINVNGQPHESTFNLEARFHNGKVRELHVKFDEQRMRDIQS” registered a protease stability score of 0.49. The sequence “DREQQHVAREFLEAHNEGDEDRMVQLADPNARVHVGDKEVHGREELKKWVRDVEKKMNVQIDVRSIHAHNGKIRITARISFKINGEPRSDRIRFDFRAHNGTLKDFHLKVSEEQRKKKQQ” gave a protease stability score of 0.075.

Consider “DRERLADELRRRLEKVMTTGDPTELDKLMDPNARILYGDQKFHGREHVKEFAKTLNDQYDHVTIRLVSYDIKNGEIHIVVDVVFRHNGQTRTKRINFVARVHGDKVKIESINIP”, for which the protease stability score amounted to 1.3. On to “DRERQKKNLKDFVDALTKGDPDQVVKQFDKDARVRVGDKQVEGRDQIREFAKEWSKHVDRFRITEMRVHNGRLDIQAEQHHNGRKRRIQVEVNWHNGQIKNMQWTHG”, for which the protease stability score was 1.4. Take “DRERRHEFATEVVENLKQGDWKRLVEQADKDVTADIGDTKYKGRETFSKWAQQFVRRVDRVEIVDMRLDGDEVRINMDVKHNGQTRRSVFIARWHNGRIKHFRIETG”: the protease stability score came out at 1.62. Take “DREVIKLAKRMITALQKGDHQKFVNLLDPNVRIDVGDKEVHGQEEAQERLREETRQIRVDNHVKTIDDNNGRANFKMSVNAQVNGKPVHYEVNAVVHAHNGKARRLHIKVPEEDKRHLDR”: the protease stability score is 0.034.

In turn, “DREVLKEFLKQFHEGNFHEVARMADPNAEVEVGDKTVEGREHLITLHKHIHDKADHASIHRVEIHNGRINVELTVNFNGTNVVYRFTLEAENGKLKNINYRARDSDQKRILKRLWG” returned a protease stability score of 0.091. “DREVQEHIEQFWKVYRTGDEKRIVELLDPNVKFDYGDRTVEGRETVREEVKKHHDEQRVDFKSVDVKVTNGRIDVKVRAKYHHNGTPDEQKFTASASLNNGRVKHMSRQTSK”: the protease stability score is -0.181. In turn, “DRHDMHKLEEIWKAIQTGDKDRVKELADPNAEFNVGDKTYHGMDQYITDLKKKRDQMRVHLELQSLDVKNGRARAVAVLRNEHNGTPDQRKFKVNATFRNGRLQHLKLQELS” gave a protease stability score of 0.021.

Sequence “DRHERKKVAKDFNEALETNDHEQLMEQMDPNARIKYGDKHYHGREDLRRFWKKLVDSVDHITVDKMQVRGEEVVVLAKAESNGRNETFRLVMEFHNGRIKFVRKDTP” showed a protease stability score of 0.132. The sequence “DRKAEKLLEDLLDARRTNDEKKLQDLMDPNVKVDVGNKHYEGRERNAKSYAQEYKQMRLEIRVKSIHNNGNHVIQTFDADVRINGKPIRFRAQMMLHFHNGRVQHVYLRLDPSVEQHRRD” yielded a protease stability score of 0.218. Consider “DRKAKEFAETLYDIFQRGNFENFLELIDKNVTVDVGDRTLHGRQAHEFAKEFQKEQLKVEVDDWHVDNQGEKVRITMTFVLHVNGRPQKQRQEQRFHLHNGRIKSLQVKTDE”, for which the protease stability score is -0.156.

In turn, “DRKLEEVFRKWLKAQKEGNPEVARKNADKDAKIVIGDTQIHGRDEMAEKVRHRKKHLQVDIKIKRMQIQGDKIKIKFEVVENHNGKPEKYKATAFARASDGNFKEMQVNKTG” had a protease stability score of 0.12. In the case of “DRKTEKDAIERARTALQDGDPQQAFDLFDENAKIVVGDQEYHGREQVSTAVEEFRKEIDHFEVERVSVHNGHATIDARVEHNGRSDDVTFHVTVHNGQVREAQVRTK”, the protease stability score was -0.213.

In turn, “DRNANKLATKVFTAYNRNNPKQLVENLDPNAELSYGDKEYHGRENMKKMVEDIKREMQLSIHIDHVDVHNGQARVEFVQENEHNGQPSRKHYVAHFDHENGRVKKLVFKESG” came in with a protease stability score of -0.106. Take “DRNHVKEIAKEILKAMETNDEKRMSELMDKNVRLVYGDTEVHGRERVLTTIKHELESIDHVNFHDMSVDGDKIHVVYHVQKNGDRRQVEVRYVISNGKIQEVQINTR”: the protease stability score turned out to be 0.623.

As to “DRNRRAEEFARTQLKAFKHGDEKLLRDLFDPNVHISVGDQTVHGRDEVARQEKDQATQVDHATRKIDRVEMNGDQVEVRARIRLNFNGQDRSTDVVYHATDDNGHIVVKSVRQG”, the protease stability score was 0.017. The result for “DRQASEVARKILQAIRKGDPETMKELVDPNVNVTVGEKTFKGREEAARHFVERQKQIRVQVDSMEVSAHNGKVDARMKVLYNHNGRPVKMDVVVHFDMKNGKARRAEYRVDEEQRRRLET” reads 0.082; that for “DRQNKAQDLAEELRRAFHTNNEDQFKKLADKNARATVGEHTFHGSDEIRKVLKELVDNVDHLRVDIHSVSVHNGQINIDMKLILDHNGRKETQEVHIRAQDHNGQNKVRNITFG”, -0.154. Consider “DRQVVRDAQTIFRLEKHGNENDVRRMADPNVDVNIGDKEIRGREEFAKSMRRKRDEIRVSLEIKNWTTTGDKANIDAKMQEEHNGRPSEKRVHIIVTATNGRMKSAHYHNTK”, for which the protease stability score was -0.006.
